We go through three molecules from article PMC8606822, “Novel dTDP-L-Rhamnose Synthetic Enzymes (RmlABCD) From Saccharothrix syringae CGMCC 4.1716 for One-Pot Four-Enzyme Synthesis of dTDP-L-Rhamnose” (Frontiers in Microbiology, 2021).

One data set has as its target T1, Ss-RmlD (Saccharothrix syringae, UniProt A0A5Q0HAF2).
T1 construct: gene rfbD
T1 sequence (A0A5Q0HAF2 1-297): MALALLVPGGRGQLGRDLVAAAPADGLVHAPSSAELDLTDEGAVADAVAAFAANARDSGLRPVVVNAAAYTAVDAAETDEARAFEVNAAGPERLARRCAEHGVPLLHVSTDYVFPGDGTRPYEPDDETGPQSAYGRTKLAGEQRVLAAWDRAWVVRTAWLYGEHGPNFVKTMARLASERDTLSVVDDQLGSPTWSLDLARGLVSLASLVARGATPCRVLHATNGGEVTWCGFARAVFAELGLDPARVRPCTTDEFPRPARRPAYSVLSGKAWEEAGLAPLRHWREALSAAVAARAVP
Description: one-pot reaction with Ss-RmlABC; product yield by HPLC. The following applies: pH 8.5, 30 °C; dTDP-4-keto-rhamnose made in situ. It is filed as biochemical.

Substrate in the data set “purified protein”: Cc1cn([C@H]2C[C@H](O)[C@@H](COP(=O)(O)OP(=O)(O)O[C@H]3O[C@H](CO)[C@@H](O)[C@H](O)[C@H]3O)O2)c(=O)[nH]c1=O
Description: purified protein. It counts as biochemical, Saccharothrix syringae. The following applies: optimal conditions (50 °C, pH 7.5, 0.02 mM NAD+).

Substrate in data set [1]: O=P(O)(O)O[C@H]1O[C@H](CO)[C@@H](O)[C@H](O)[C@H]1O
Description: malachite green PPi release assay with inorganic pyrophosphatase. It counts as biochemical, Saccharothrix syringae. The settings on record: 1 mM dTTP, optimal conditions (37 °C, pH 9.0, 2.5 mM Mg2+).

Substrate in data set [2]: Cc1cn([C@H]2C[C@H](O)[C@@H](COP(=O)(O)OP(=O)(O)OP(=O)(O)O)O2)c(=O)[nH]c1=O
The description is as above. It counts as biochemical, Saccharothrix syringae. The following applies: 1 mM Glc-1-P, optimal conditions (37 °C, pH 9.0, 2.5 mM Mg2+).

`NC(=O)C1=CN([C@@H]2O[C@H](COP(=O)(O)OP(=O)(O)OC[C@H]3O[C@@H](n4cnc5c(N)ncnc54)[C@H](OP(=O)(O)O)[C@@H]3O)[C@@H](O)[C@H]2O)C=CC1` [NADPH]: the “one-pot reaction with Ss-RmlABC; product yield by HPLC” value at Ss-RmlD is on record as “NADPH was an essential cofactor for the final step of reduction catalyzed by Ss-RmlD”.

B1: Ss-RmlB (Saccharothrix syringae) (protein)
chain: MRVLVTGGAGFIGSHYVRELVGGSYPAYADAEVVVLDKLTYAGNEANLAPVADSPRLTFVRGDICDRELVVGVMRGVDVVVHFAAESHVDRSITGSADFVLTNVLGTQVLLQAALEAGVAKFVHVSTDEVYGSIAEGSWTEDHVLEPNSPYSASKASSDLLARAFHRTHGLPVCVTRCSNNYGPYQFPEKVIPLFVTNLVDGRKVPLYGDGLNVRDWLHVDDHCRGIQLVLEGGRGGEIYNIGGGTELTNRELTARLLEATGRDWDSFVEPVEDRKGHDRRYSVDITKISTELGYAPRVDFAEGLAATVRWYRENRAWWEPLKQRAALTG
With B1, in “purified protein”, the Km worked out at 98.60 µM and the turnover number (kcat) was 11.2 s⁻¹.

B2: Ss-RmlA (Saccharothrix syringae) (protein)
chain: MKGIILAGGSGTRLHPITQAVSKQLLPVYDKPMVYYPLSVLMLAGIREILLISTPTDLPLFRRLLGDGSQFGLSVSYAEQAQPNGLAEAFVIGADFVGDDDVSLVLGDNIFYGQGFSRLLQHHAATLDGCVLFGYPVKDPERYGVGEVDATGRLVSIEEKPAAPKSNKAITGLYFYDNQVVDIARNLRPSARGELEITDVNLTYLRQGRAHLVDLGRGFAWLDTGTHDSLLEAGQFVQVLEHRQGVRIACPEEIALRMGFITADECYALGEKLAKSGYGQYVMYVAREVR
Consider B2, for which, in data set [1], the Km was determined as 117.30 µM and the turnover number (kcat) was found to be 3.46 s⁻¹. Besides, in data set [2], the Km stood at 49.56 µM and the catalytic constant (kcat) was 5.39 s⁻¹.
